Consider 19 molecules from patent US20250320282A1 (MABYLON, published 2025).

This assay has as its target T1, Ara h 6 (Arachis hypogaea allergen 6) (Arachis hypogaea, UniProt Q647G9 22-145).
T1 construct: Peanut allergen; also called Ara h 6.0101; nAra h 6
T1 sequence: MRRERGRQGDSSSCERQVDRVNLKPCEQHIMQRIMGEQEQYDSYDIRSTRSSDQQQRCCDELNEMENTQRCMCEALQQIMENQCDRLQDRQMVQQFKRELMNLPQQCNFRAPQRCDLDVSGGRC
Kind of assay: ELISA, Fab titration on coated Ara h 6. The method, then: Next, the effect of the engineered variable regions on antigen binding was tested. Briefly, ELISA plates were coated with respective Ara h proteins (Ara h 2:0.05 ug/ml, Ara h 6:0.1 ug/ml, Ara h 3 loop (2nd): 0.1 ug/ml) overnight at 4° C. Afterwards, plates were blocked with BSA (2% in PBS) for 1 hour at room temperature. Fab fragment titration series starting from 4 ug/ml was prepared, added to the single ELISA plate wells and incubated for 2 h at room temperature. The read-out was performed by adding anti-hu-kappa/lambda-HRP (anti-kappa Invitrogen (A18853) and anti-lambda abcam (ab99811) for 1 h at room temperature. Tetramethylbenzidine substrate solution (TMB, Sigma-Aldrich Chemie GmbH, Buchs, Switzerland) was added, then after 5 minutes of hydrolysis time, the reaction was stopped by the addition of 1 M H₂SO₄ and the absorbances were read at 450 nm.

B1: MY006-15E3 Fab Hg Lg (Fab, V domains shown)
VH: EVQLVESGGGLVQPGGSLRLSCAASGFKFSTFYMTWIRQAPGKGLEWVANIKQDGSEKDYLDSVRGRFTISRDNAKSSLYLQMNSLRAEDTAVYYCTRNGLQDSYSGDFFDHWGQGTLVTVSS
VL: QSVLTQPPSVSAAPGQKVTISCSGTGSNIGHNYVSWYQQLPGTAPKLLIFDNTKRPSGIPDRFSGSKSGSSATLGITGLQTGDEADYFCATWDADLSAVLFGGGTKLTVL
notes: Germlined variant, IgG1-Fab format
Turning to B1, the binding result is listed as “binds”.

B2: MY006-15E3 Fab Lf (Fab, V domains shown)
VH: EVQLVESGGALVQPGGSLRLSCAASGFKFSTFYMTWIRQAPGKGLEWVANIKQDGSEKDYLDSVRGRFNISRDNAKSVLYLQMNTLSADDTGVYYCTRNGLQDSYSGDFFDHWGQGILVTVSS
VL: QSVLTQPPSVSAAPGQKVTISCSGTGSNIGHNYVSWYQQLPGTAPKLLIYDNTKRPSGIPDRFSGSKSGTSATLGITGLQTGDEADYYCATWDADLSAVLFGGGTKLTVL
notes: Germlined variant, IgG1-Fab format; also called 15E3 Lf
In the case of B2, the binding result is on record as “binds”.

B3: MY006-15E3 Fab Hf Lf (Fab, V domains shown)
VH: EVQLVESGGGLVQPGGSLRLSCAASGFKFSTFYMTWVRQAPGKGLEWVANIKQDGSEKDYLDSVRGRFTISRDNAKNSLYLQMNSLRAEDTAVYYCTRNGLQDSYSGDFFDHWGQGTLVTVSS
VL: QSVLTQPPSVSAAPGQKVTISCSGTGSNIGHNYVSWYQQLPGTAPKLLIYDNTKRPSGIPDRFSGSKSGTSATLGITGLQTGDEADYYCATWDADLSAVLFGGGTKLTVL
notes: as for B1
With B3, the binding result was “binds”.

B4: MY006-15E3 Fab Hg (Fab, V domains shown)
VH: EVQLVESGGGLVQPGGSLRLSCAASGFKFSTFYMTWIRQAPGKGLEWVANIKQDGSEKDYLDSVRGRFTISRDNAKSSLYLQMNSLRAEDTAVYYCTRNGLQDSYSGDFFDHWGQGTLVTVSS
VL: QSVLTQPPSISAAPGQKVTISCSGTGSNIGHNYVSWYQQLPRTAPRLLIFDNTKRPSGIPDRFSGSKSGSSATLGITGLQTGDEAHYFCATWDADLSAVLFGGGTKLTVL
notes: Germlined variant, IgG1-Fab format; also called 15E3 Hg
For the molecule B4, the binding result is “binds”.

B5: MY006-15E3 Fab Lg (Fab, V domains shown)
VH: EVQLVESGGALVQPGGSLRLSCAASGFKFSTFYMTWIRQAPGKGLEWVANIKQDGSEKDYLDSVRGRFNISRDNAKSVLYLQMNTLSADDTGVYYCTRNGLQDSYSGDFFDHWGQGILVTVSS
VL: QSVLTQPPSVSAAPGQKVTISCSGTGSNIGHNYVSWYQQLPGTAPKLLIFDNTKRPSGIPDRFSGSKSGSSATLGITGLQTGDEADYFCATWDADLSAVLFGGGTKLTVL
notes: Germlined variant, IgG1-Fab format; also called 15E3 Lg
In the case of B5, the binding result is listed as “binds”.

B6: MY006-15E3 Fab Hg Lf (Fab, V domains shown)
VH: EVQLVESGGGLVQPGGSLRLSCAASGFKFSTFYMTWIRQAPGKGLEWVANIKQDGSEKDYLDSVRGRFTISRDNAKSSLYLQMNSLRAEDTAVYYCTRNGLQDSYSGDFFDHWGQGTLVTVSS
VL: QSVLTQPPSVSAAPGQKVTISCSGTGSNIGHNYVSWYQQLPGTAPKLLIYDNTKRPSGIPDRFSGSKSGTSATLGITGLQTGDEADYYCATWDADLSAVLFGGGTKLTVL
notes: as for B1
Turning to B6, the binding result is “binds”.

B7: MY006-15E3 Fab Hf (Fab, V domains shown)
VH: EVQLVESGGGLVQPGGSLRLSCAASGFKFSTFYMTWVRQAPGKGLEWVANIKQDGSEKDYLDSVRGRFTISRDNAKNSLYLQMNSLRAEDTAVYYCTRNGLQDSYSGDFFDHWGQGTLVTVSS
VL: QSVLTQPPSISAAPGQKVTISCSGTGSNIGHNYVSWYQQLPRTAPRLLIFDNTKRPSGIPDRFSGSKSGSSATLGITGLQTGDEAHYFCATWDADLSAVLFGGGTKLTVL
notes: Germlined variant, IgG1-Fab format; also called 15E3 Hf
On to B7, for which the binding result is “binds”.

B8: MY006-15E3 Fab Hf Lg (Fab, V domains shown)
VH: EVQLVESGGGLVQPGGSLRLSCAASGFKFSTFYMTWVRQAPGKGLEWVANIKQDGSEKDYLDSVRGRFTISRDNAKNSLYLQMNSLRAEDTAVYYCTRNGLQDSYSGDFFDHWGQGTLVTVSS
VL: QSVLTQPPSVSAAPGQKVTISCSGTGSNIGHNYVSWYQQLPGTAPKLLIFDNTKRPSGIPDRFSGSKSGSSATLGITGLQTGDEADYFCATWDADLSAVLFGGGTKLTVL
notes: Germlined variant, IgG1-Fab format; also called 15E3: Hf/Lg
Regarding B8, the binding result is given as “binds”.

B9: MY006-2F8 Fab Hg (Fab, V domains shown)
VH: EVQLVESGGGLVQPGGSLRLSCAASGFIFSDYNMNWVRQAPGKGLEWVSSITRSSRTIYYADSVKGRFTISRDNAKNSLYLQMNSLRDEDTAVYYCAREDFDVSTGPYYMDVWGKGTTVTVSS
VL: EIVLTQSPGTLSLSPGERATLSCRASQSVSNMFLVWYQQKPGQAPRLLMYGASTRATDIPDRFSGSGSGTDFTLTISRLEPEDFAVYYCQQNGNSPYTFGQGTKLEIK
notes: Germlined variant, IgG1-Fab format; also called 2F8 Hg
Take B9: the binding result is listed as “binds”.

B10: MY006-2F8 Fab Hg Lg (Fab, V domains shown)
VH: EVQLVESGGGLVQPGGSLRLSCAASGFIFSDYNMNWVRQAPGKGLEWVSSITRSSRTIYYADSVKGRFTISRDNAKNSLYLQMNSLRDEDTAVYYCAREDFDVSTGPYYMDVWGKGTTVTVSS
VL: EIVLTQSPGTLSLSPGERATLSCRASQSVSNMFLVWYQQKPGQAPRLLMYGASTRATGIPDRFSGSGSGTDFTLTISRLEPEDFAVYYCQQNGNSPYTFGQGTKLEIK
notes: as for B1
Turning to B10, the binding result is given as “binds”.

B11: MY006-2F8 Fab Lf (Fab, V domains shown)
VH: EVQLVESGGGLVKPGGSLRLSCAASGFIFSDYNMNWVRQAPGKGLEWVSSITRSSRTIYYADSVKGRFTISRDNAKNSLHLQMNSLRDADTAVYYCAREDFDVSTGPYYMDVWGNGTTVIVSS
VL: EIVLTQSPGTLSLSPGERATLSCRASQSVSNMFLVWYQQKPGQAPRLLIYGASTRATGIPDRFSGSGSGTDFTLTISRLEPEDFAVYYCQQNGNSPYTFGQGTKLEIK
notes: Germlined variant, IgG1-Fab format; also called 2F8 Lf
As to B11, the binding result is on record as “binds”.

B12: MY006-7G6 Fab Hg Lg (Fab, V domains shown)
VH: QVQLVESGGGVVQPGRSLRLSCAASGIAFNDYTMHWVRRAPGKGLEWVAAISYGGTNKYYADSVKGRFTISRDSSKNTLYLQMNSLRAEDTAVYYCARDSGYRSLLHWGQGTLVTVSS
VL: EIVLTQSPLSLPVTPGEPASISCRSSQSLVHRNGYNYLDWYLQKPGQSPQLLIYMASKRASGVPDRFSGSGSGTDFTLKISRVEAEDVGVYYCMQALQTWTFGQGTKVEIK
notes: as for B1
On to B12, for which the binding result was “binds”.

B13: MY006-7G6 Fab Hg Lf (Fab, V domains shown)
VH: QVQLVESGGGVVQPGRSLRLSCAASGIAFNDYTMHWVRRAPGKGLEWVAAISYGGTNKYYADSVKGRFTISRDSSKNTLYLQMNSLRAEDTAVYYCARDSGYRSLLHWGQGTLVTVSS
VL: DIVMTQSPLSLPVTPGEPASISCRSSQSLVHRNGYNYLDWYLQKPGQSPQLLIYMASKRASGVPDRFSGSGSGTDFTLKISRVEAEDVGVYYCMQALQTWTFGQGTKVEIK
notes: as for B1
Consider B13, for which the binding result is given as “binds”.

B14: MY006-7G6 Fab Hg (Fab, V domains shown)
VH: QVQLVESGGGVVQPGRSLRLSCAASGIAFNDYTMHWVRRAPGKGLEWVAAISYGGTNKYYADSVKGRFTISRDSSKNTLYLQMNSLRAEDTAVYYCARDSGYRSLLHWGQGTLVTVSS
VL: EIVLTQSPLSLPVTPGEPASISCRSSQSLVHRNGYNYLDWYLQKPGQSPQLLIYMASKRASGVPDRFSGSGSGTEFTLKISRVEAEDVGIYYCMQALQTWTFGQGTKVEVN
notes: Germlined variant, IgG1-Fab format; also called 7G6 Hg
Regarding B14, the binding result is listed as “binds”.

B15: MY006-7G6 Fab Lg (Fab, V domains shown)
VH: QVQLVESGGGVVQPGRSLRLSCAASGIAFNDYTMHWVRRSPDKGLEWVAAISYGGTNKYYADSVKGRFTISRDSSKNTLFLQMDSLRVEDTAVYYCARDSGYRSLLHWGQGTLVTVSS
VL: EIVLTQSPLSLPVTPGEPASISCRSSQSLVHRNGYNYLDWYLQKPGQSPQLLIYMASKRASGVPDRFSGSGSGTDFTLKISRVEAEDVGVYYCMQALQTWTFGQGTKVEIK
notes: Germlined variant, IgG1-Fab format; also called 7G6 Lg
Turning to B15, the binding result was “binds”.

B16: MY006-7G6 Fab Lf (Fab, V domains shown)
VH: QVQLVESGGGVVQPGRSLRLSCAASGIAFNDYTMHWVRRSPDKGLEWVAAISYGGTNKYYADSVKGRFTISRDSSKNTLFLQMDSLRVEDTAVYYCARDSGYRSLLHWGQGTLVTVSS
VL: DIVMTQSPLSLPVTPGEPASISCRSSQSLVHRNGYNYLDWYLQKPGQSPQLLIYMASKRASGVPDRFSGSGSGTDFTLKISRVEAEDVGVYYCMQALQTWTFGQGTKVEIK
notes: Germlined variant, IgG1-Fab format; also called 7G6 Lf
Regarding B16, the binding result is given as “binds”.

B17: MY006-7G6 Fab Hf (Fab, V domains shown)
VH: QVQLVESGGGVVQPGRSLRLSCAASGIAFNDYTMHWVRQAPGKGLEWVAAISYGGTNKYYADSVKGRFTISRDNSKNTLYLQMNSLRAEDTAVYYCARDSGYRSLLHWGQGTLVTVSS
VL: EIVLTQSPLSLPVTPGEPASISCRSSQSLVHRNGYNYLDWYLQKPGQSPQLLIYMASKRASGVPDRFSGSGSGTEFTLKISRVEAEDVGIYYCMQALQTWTFGQGTKVEVN
notes: Germlined variant, IgG1-Fab format; also called 7G6 Hf
Turning to B17, the binding result is on record as “binds”.

B18: MY006-7G6 Fab Hf Lg (Fab, V domains shown)
VH: QVQLVESGGGVVQPGRSLRLSCAASGIAFNDYTMHWVRQAPGKGLEWVAAISYGGTNKYYADSVKGRFTISRDNSKNTLYLQMNSLRAEDTAVYYCARDSGYRSLLHWGQGTLVTVSS
VL: EIVLTQSPLSLPVTPGEPASISCRSSQSLVHRNGYNYLDWYLQKPGQSPQLLIYMASKRASGVPDRFSGSGSGTDFTLKISRVEAEDVGVYYCMQALQTWTFGQGTKVEIK
notes: Germlined variant, IgG1-Fab format; also called 7G6: Hf/Lg
With B18, the binding result was “binds”.

B19: MY006-7G6 Fab Hf Lf (Fab, V domains shown)
VH: QVQLVESGGGVVQPGRSLRLSCAASGIAFNDYTMHWVRQAPGKGLEWVAAISYGGTNKYYADSVKGRFTISRDNSKNTLYLQMNSLRAEDTAVYYCARDSGYRSLLHWGQGTLVTVSS
VL: DIVMTQSPLSLPVTPGEPASISCRSSQSLVHRNGYNYLDWYLQKPGQSPQLLIYMASKRASGVPDRFSGSGSGTDFTLKISRVEAEDVGVYYCMQALQTWTFGQGTKVEIK
notes: as for B1
Consider B19, for which the binding result is given as “binds”.
